Data taken from US20060188874A1, “Methods and compositions for colorimetrically assessing peptide characteristics” (priority 2004, published 2006).

Experiments:
Type in all cases: physicochemical
[1] = Dissolution test of peptide sample (pH raised stepwise until dissolved)
Procedure: For example, a simple dissolution test can be used to evaluate the solubility characteristics of a peptide sample. The test is conveniently carried out at a temperature in the range of from about 20° C. to about 27° C., preferably about 25° C. From about 0.1 to about 0.3 grams of peptide is combined with about 1 to about 3 ml of an aqueous medium. The medium may be deionized water. In the case of T-20 or T-1249, these peptides are mildly acetic. Consequently, the medium optionally may include some initial amount base, e.g., about 17 mM Na2CO3 or the like, to provide a suitable initial pH. […] The mixture is rapidly stirred for 5 to 10 minutes between additional increments. Solids adhering to the sides of the testing vessel should be re-suspended. Rapid mixing should be maintained throughout. Results include observations regarding the clarity of the mixture, time required for dissolution, concentration and amount of caustic used, final pH upon dissolution (if this occurs below pH 9), and the like.
For purposes of the invention, peptides such as T-20, T-1249, and GLP-1, as well as counterparts of these, may be deemed to be in a more desired, deaggregated form if dissolution in accordance with this test occurs at a pH of less than about 8, preferably less than about 7.5. If dissolution occurs at a pH of greater than about 7.5, more preferably greater than about 8, the peptide is deemed to be in a less desired aggregated form. This helps to ensure the practicality of handling the peptide during subsequent processing and handling.

[2] = Molar mass by MALS light scattering (apparent MW as measure of aggregation); details: solution sample taken during acid addition at pH 9.3, re-work of Sample A
Excerpt: Molecular weight analysis is also a useful technique to assess beta sheet structure in a peptide. Depending upon the technique and equipment used, the molecular weight may be the weight average molecular weight, number average molecular weight, actual molecular weight, or average molecular weight. Assessment of average molecular weight or weight average molecular weight are preferred. A peptide formed from a known sequence and number of amino acids generally has a theoretical molecular weight that is known with a fair degree of certainty. The theoretical molecular weight can be calculated from the theoretical peptide structure. The molecular weight of a peptide sample can be determined through any suitable technique such as light scattering analysis. However, the amount of beta sheet structure of a sample impacts its measured molecular weight. Generally, the measured molecular weight tends to be higher with increasing amounts of beta sheet structure being present.
As an example, the T-1249 peptide has a theoretical molecular weight of about 5000. The measured, apparent molecular weight of actual samples of the peptide may range from 6000 to 100,000 or even more. […]
Sample A was a portion of a highly aggregated batch of T-1249 peptide having an average molecular weight of 98,890±6660. The molar mass was determined using MALS light scattering. […]

[3] = Congo Red colorimetric analysis of beta sheet aggregation; details: aggregated T-1249 peptide added to initially orange red solution
Procedure: The following procedure is used to prepare a Congo Red solution suitable for assessing, qualitatively and/or quantitatively, via colorimetric analysis the solubility and formulating characteristics of a peptide sample. A 50 mM solution of sodium phosphate buffer, pH 7.2 is prepared and filtered through a 0.22 μm Polyethersulfone membrane. 25 μM of Congo Red is dissolved in the sodium phosphate buffer with sonication. The mixture also included about 1% by volume ethanol (This can be 95% ethanol or absolute ethanol.) The solution is orange-colored.
Sonication is used until the peptide is dissolved
The peptide/Congo Red solution is incubated at ambient temperature for 3-4 hours.
According to a preferred procedure, a Hewlett Packard 8453 spectrophotometer is used to obtain a blank, reference spectrum of the 50 mM solution of sodium phosphate buffer prepared in Example 6. Using the same instrument, a spectrum for the 25 μM Congo Red solution is measured over a suitable range, e.g., from about 300 nm to about 650 nm. […] If this difference is greater than an empirically determined quality control specification, the sample can be deemed to fail. […]

[4] = precipitated with 18% by volume acetonitrile

## Acetyl-WQEWEQKITALLEQAQIQQE KNEYELQKLDKWASLWEWF-NH2 (Ac-WQEWEQKITALLEQAQIQQEKNEYELQKLDKWASLWEWF-NH2) [Sample T-1249, ID NO; 20]
[1]; precipitated with 14% by volume acetonitrile
  dissolution behaviour: dissolved to some degree at a pH of 6.95 but not completely
[1]; [4]
  dissolution time: 1 h
  final pH at dissolution: 6.69
  turbidity appearance at dissolution: very faint turbidity
[1]; precipitated with 20 to 22 volume percent acetonitrile
  dissolution pH: around 9
[1]; precipitated with no co-solvent, after 14 to 18 hours, pH of 8
  dissolution behaviour: dissolved very slowly with high turbidity
[2]
  molar mass by the MALS method: 6500
[3]
  colour change of Congo Red solution: deep salmon-pink color
